# Laboratory results taken from patent US20220340642A1 (Kyowa Kirin, published 2022).
# Residue numbers refer to the chain shown, from its start. Names and notes keep the numbering of the source.
# T1: soluble recombinant of human TL1A (His6, GS linker, Leu72-Leu251) (human, UniProt O95150 72-251)
# T1 construct: also called His6-TL1A; hTL1A
# T1 sequence: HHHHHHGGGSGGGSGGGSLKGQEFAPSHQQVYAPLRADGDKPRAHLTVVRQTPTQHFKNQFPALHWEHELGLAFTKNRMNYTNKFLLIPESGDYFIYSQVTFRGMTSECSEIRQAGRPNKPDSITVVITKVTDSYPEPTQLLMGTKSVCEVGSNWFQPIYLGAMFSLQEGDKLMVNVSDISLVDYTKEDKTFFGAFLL
# T2: soluble recombinant of cynomolgus monkey FasL (His6, Pro133-Leu280) (cynomolgus monkey, UniProt P63308 133-280)
# T2 construct: also called His6-cynoFasL
# T2 sequence: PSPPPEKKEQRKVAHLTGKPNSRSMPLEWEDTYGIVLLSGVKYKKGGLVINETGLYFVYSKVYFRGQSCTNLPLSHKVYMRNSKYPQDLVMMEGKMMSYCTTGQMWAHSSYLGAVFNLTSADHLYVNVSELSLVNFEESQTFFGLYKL
# T3: FLAG-cynoLIGHT (FLAG tag, cynomolgus monkey LIGHT Asp74-Val240) (cynomolgus monkey)
# T3 construct: SEC trimer fraction; also called soluble cynomolgus monkey LIGHT trimer
# T3 chain: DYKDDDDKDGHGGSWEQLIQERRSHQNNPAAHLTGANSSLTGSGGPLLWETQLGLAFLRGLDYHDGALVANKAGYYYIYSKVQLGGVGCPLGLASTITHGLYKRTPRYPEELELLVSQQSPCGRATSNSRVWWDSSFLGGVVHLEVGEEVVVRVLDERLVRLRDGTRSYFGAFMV
# T4: soluble recombinant of cynomolgus monkey TL1A (His6, GS linker, Leu72-Leu251) (cynomolgus monkey)
# T4 construct: also called His6-cynoTL1A
# T4 chain: T1 sequence with F57L, I96V
# T5: soluble recombinant of human TL1A (His6, GS linker, Leu72-Leu251) (UniProt O95150 72-251)
# T5 chain: T1 sequence
# T6: soluble recombinant of human FasL (His6, Pro134-Leu281) (UniProt P48023 134-281)
# T6 chain: T2 sequence with Q10L, P20S, T70N, H108R
# T7: soluble recombinant of human LIGHT (His10, GS linker, Asp74-Val240)
# T7 chain: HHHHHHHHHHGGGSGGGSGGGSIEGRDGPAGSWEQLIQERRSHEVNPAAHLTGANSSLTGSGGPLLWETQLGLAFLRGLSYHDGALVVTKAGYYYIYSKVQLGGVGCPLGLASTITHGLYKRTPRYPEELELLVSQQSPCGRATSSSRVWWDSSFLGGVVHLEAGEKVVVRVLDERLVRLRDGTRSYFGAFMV
# T8: soluble recombinant of cynomolgus monkey TL1A (His6, GS linker, Leu72-Leu251)
# T8 chain: T1 sequence with F57L, I96V
# T9: soluble recombinant of cynomolgus monkey FasL (His6, Pro133-Leu280) (UniProt P63308 133-280)
# T9 chain: T2 sequence
# T10: soluble recombinant of cynomolgus monkey LIGHT (His10, GS linker, Asp74-Val240)
# T10 chain: T7 chain with P29H, A30G, E44Q, V45N, S80D, V88A, T89N, S146N, A164V, K167E
# B1: chimera A-E57K_R58D-Fc (Eg1S LALAGANA) (Fc fusion)
# chain: ETFPPKYLHYDEETSHQLLCDKCPPGTYLKQHCTAKWKTVCAPCPPRHYTQFWNYLKDCRYCNVLCGEREEEARACHATHNRACRCRTGFFAHAGFCLEHASCPPGAGVIAPGTPSQNTQCQPCPDGFFSNETSSKAPCRKHTNCSVFGLLLTQKGNATHDNICSGNSESTQKEPKSSDKTHTCPPCPAPEAAGAPSVFLFPPKPKDTLMISRTPEVTCVVVDVSHEDPEVKFNWYVDGVEVHNAKTKPREEQYNSTYRVVSVLTVLHQDWLNGKEYKCKVSNKALPAPIEKTISKAKGQPREPQVYTLPPSRDELTKNQVSLTCLVKGFYPSDIAVEWESNGQPENNYKTTPPVLDSDGSFFLYSKLTVDKSRWQQGNVFSCSVMHEALHAHYTQKSLSLSPGK
# B2: chimera A-E57K-Fc (Eg1S YTE) (Fc fusion)
# chain: B1 chain with D58R, A192L, A193L, A195G, M210Y, S212T, T214E, A392N
# B3: chimera A-E57K-Fc (Eg1S LALAGANA) (Fc fusion)
# chain: B1 chain with D58R
# B4: chimera A-E57R-Fc (Eg1S YTE) (Fc fusion)
# chain: B1 chain with K57R, D58R, A192L, A193L, A195G, M210Y, S212T, T214E, A392N
# B5: chimera A-E57K_R58E-Fc (Eg1S LALAGANA) (Fc fusion)
# chain: B1 chain with D58E
# B6: chimera A-E57V-Fc (Eg1S LALAGANA) (Fc fusion)
# chain: B1 chain with K57V, D58R
# B7: chimera A-Fc (Eg1S YTE) (Fc fusion)
# chain: B1 chain with K57E, D58R, A192L, A193L, A195G, M210Y, S212T, T214E, A392N
# B8: chimera A-E57V-Fc (Eg1S YTE) (Fc fusion)
# chain: B1 chain with K57V, D58R, A192L, A193L, A195G, M210Y, S212T, T214E, A392N
# B9: chimera A-Fc (Eg1S LALAGANA) (Fc fusion)
# chain: B1 chain with K57E, D58R
# B10: chimera A-E57K_R58D-Fc (Eg1S YTE) (Fc fusion)
# chain: B1 chain with A192L, A193L, A195G, M210Y, S212T, T214E, A392N
# notes: also called 45-10-Fc (Eg1S YTE)
# B11: chimera A-E57K_R58E-Fc (Eg1S YTE) (Fc fusion)
# chain: B1 chain with D58E, A192L, A193L, A195G, M210Y, S212T, T214E, A392N
# notes: also called 45-18-Fc (Eg1S YTE)
# Biological target: T1, soluble recombinant of human TL1A …
# Experiment: SPR, binder captured on Protein A chip
# Method: (§1) The binding activity to human and cynomolgus monkey DcR3 ligand trimers were analyzed by the SPR method. BIAcore T-100 (GE Healthcare) was used for measurement of the binding activities to human LIGHT, cynomolgus monkey LIGHT, human TL1A and cynomolgus monkey TL1A, and BIAcore T-200 (GE Healthcare) was used for measurement of the binding activities to human FasL and cynomolgus monkey FasL. As the buffer, HBS-EP+Buffer was used.
# (§2) Various DcR3 variants were injected into Series S Sensor Chip Protein A (GE Healthcare) at 10 μL/min for 30 seconds and captured. Meanwhile, the buffer containing no protein was injected into a reference flow cell. Thereafter, as an analyte, each human DcR3 ligand trimer or each cynomolgus monkey DcR3 ligand trimer diluted to 0.08 to 20 nmol/L was injected. A human LIGHT trimer, a human TL1A trimer or each cynomolgus monkey DcR3 ligand trimer was injected at the flow rate of 30 μL/min for 2 minutes to monitor the binding, and subsequently the buffer was injected for 5 minutes to monitor dissociation. A human FasL trimer was injected at 30 μL/min for 1 minute to monitor the binding, and subsequently the buffer was injected for 3 minutes to monitor dissociation. Then, 3 mol/L magnesium chloride was injected at 30 μL/min for 1 minute to perform a regeneration reaction.
row,binding result,Binder
1,binds,B1
2,binds,B2
3,binds,B3
4,binds,B4
5,binds,B5
6,binds,B6
7,binds,B7
8,binds,B8
9,binds,B9
10,binds,B10
11,binds,B11

# Biological target: T2, soluble recombinant of cynomolgus …
# Experiment: SPR, binder captured on Protein A chip
# Method: as §1, §2
row,binding result,Binder
1,binds,B1
2,binds,B2
3,binds,B3
4,binds,B4
5,binds,B5
6,binds,B6
7,binds,B7
8,binds,B8
9,binds,B9
10,binds,B10
11,binds,B11

# Biological target: T3, FLAG-cynoLIGHT (FLAG tag, cynomolgus …)
# Experiment: SPR, binder captured on Protein A chip
# Method: as §1, §2
row,binding result,Binder
1,binds,B1
2,binds,B2
3,binds,B3
4,binds,B4
5,binds,B5
6,binds,B6
7,binds,B7
8,binds,B8
9,binds,B9
10,binds,B10
11,binds,B11

# Biological target: T11, FLAG-LIGHT (FLAG tag, human LIGHT Asp74-Val240) (human, UniProt O43557 74-240)
# T11 construct: SEC trimer fraction; also called soluble recombinant FLAG-LIGHT trimer; soluble human LIGHT trimer
# Experiment: SPR, binder captured on Protein A chip
# Method: as §1, §2
row,binding result,Binder
1,binds,B1
2,binds,B2
3,binds,B3
4,binds,B4
5,binds,B5
6,binds,B6
7,binds,B7
8,binds,B8
9,binds,B9
10,binds,B10
11,binds,B11

# Biological target: T4, soluble recombinant of cynomolgus …
# Experiment: SPR, binder captured on Protein A chip
# Method: as §1, §2
row,binding result,Binder
1,binds,B1
2,binds,B2
3,binds,B3
4,binds,B4
5,binds,B5
6,binds,B6
7,binds,B7
8,binds,B8
9,binds,B9
10,binds,B10
11,binds,B11

# Biological target: T5, soluble recombinant of human TL1A …
# Experiment: BIAcore SPR
# Outline: (§3)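 Dissociation constants (Kd, nM) come from surface plasmon resonance measurements on a BIAcore T-100 or T-200 instrument (GE Healthcare) in HBS-EP+ Buffer. Each test molecule was analysed for binding to soluble recombinant His-tagged human or cynomolgus monkey LIGHT, TL1A or FasL.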
row,Kd,Binder
1,0.2 nM,B1
2,0.28 nM,B2
3,0.24 nM,B3
4,0.33 nM,B4
5,0.16 nM,B5
6,0.23 nM,B6
7,0.16 nM,B7
8,0.24 nM,B8
9,0.12 nM,B9
10,0.25 nM,B10
11,0.2 nM,B11

# Biological target: T6, soluble recombinant of human FasL …
# Experiment: BIAcore SPR
# Outline: as §3
row,Kd,Binder
1,4.6 nM,B1
2,4.3 nM,B2
3,3.3 nM,B3
4,5.1 nM,B4
5,4.6 nM,B5
6,5.2 nM,B6
7,1.2 nM,B7
8,5.3 nM,B8
9,0.75 nM,B9
10,5.7 nM,B10
11,5.6 nM,B11

# Biological target: T7, soluble recombinant of human LIGHT …
# Experiment: BIAcore SPR
# Outline: as §3
row,Kd,Binder
1,0.3 nM,B1
2,0.38 nM,B2
3,0.34 nM,B3
4,0.39 nM,B4
5,0.29 nM,B5
6,0.33 nM,B6
7,0.27 nM,B7
8,0.35 nM,B8
9,0.2 nM,B9
10,0.4 nM,B10
11,0.33 nM,B11

# Biological target: T8, soluble recombinant of cynomolgus …
# Experiment: BIAcore SPR
# Outline: as §3
row,Kd,Binder
1,0.19 nM,B1
2,0.31 nM,B2
3,0.27 nM,B3
4,0.36 nM,B4
5,0.17 nM,B5
6,0.21 nM,B6
7,0.17 nM,B7
8,0.22 nM,B8
9,0.11 nM,B9
10,0.25 nM,B10
11,0.21 nM,B11

# Biological target: T9, soluble recombinant of cynomolgus …
# Experiment: BIAcore SPR
# Outline: as §3
row,Kd,Binder
1,0.96 nM,B1
2,1.1 nM,B2
3,1.1 nM,B3
4,1.2 nM,B4
5,0.99 nM,B5
6,1.1 nM,B6
7,0.27 nM,B7
8,1.1 nM,B8
9,0.22 nM,B9
10,1.2 nM,B10
11,1.2 nM,B11

# Biological target: T10, soluble recombinant of cynomolgus …
# Experiment: BIAcore SPR
# Outline: as §3
row,Kd,Binder
1,0.3 nM,B1
2,0.26 nM,B2
3,0.28 nM,B3
4,0.3 nM,B4
5,0.28 nM,B5
6,0.35 nM,B6
7,0.28 nM,B7
8,0.34 nM,B8
9,0.21 nM,B9
10,0.31 nM,B10
11,0.35 nM,B11
